Test results from patent publication US20090111753A1, “Nogo-A Polypeptide Fragments, Variant Nogo Receptor-1 Polypeptides, and Uses Thereof” (Yale University, priority 2004, published 2009).

Legend:
COS-7 cells = experiment: Fibroblast spreading assay on dried GST fusion protein; format: cell-based; details: GST fusion protein presented as dried substrate
Experimental: FIG. 2A. Effects of Amino-Nogo fragments on fibroblast spreading and neurite outgrowth. Different effects of Amino-Nogo fragments on fibroblast spreading. COS-7 cells were allowed to attach and spread on slides with spots coated with 50 ng of dried GST fusion protein as indicated and stained for F-actin. GST-A: fusion protein of GST and A fragment (FIG. 1) of Amino-Nogo. GST-A, GST-B, GST-Δ20, GST-B4 and GST-B4C: fusion protein of GST and A, B, Δ20, B4 or B4C fragment (FIG. 1) of Amino-Nogo, respectively.
FIG. 2B. COS-7 cell area for experiments as in (A) was measured and plotted.
FIG. 2C. COS-7 cells were allowed to attach and spread on 96 well dishes coated with dried GST fusion proteins as indicated. Number of attached cells were counted and plotted as a function of the amount of various proteins dried per well in a 96 well dish.
It has been recognized that the Amino-Nogo-A protein inhibits non-neuronal cell spreading and axonal outgrowth when the protein is substrate bound (Chen, M. S., et al., Nature 403:434-439 (2000); Fournier, A. E., et al., Nature 409:341-346 (2001)). […] The later domain has been termed Δ20. To determine whether the NgR-interacting aa of Amino-Nogo-A described in Example 1 regulate cell spreading and axonal outgrowth, various fragments were expressed as GST fusion proteins and purified from E. coli. To generate GST fusion proteins, amino Nogo fragments were cloned in pGEX2T (Amersham Pharmacia). Native and soluble GST fusion proteins were expressed and purified as described (GrandPre, T., et al., Nature 403:439-444 (2000)). COS-7 binding assays were done as described (Fournier, A. E., et al., Nature 409:341-346 (2001)). Bound AP to COS-7 cells was measured using NIH image software. Fibroblast spreading and cDRG outgrowth assay were done as described (Fournier, A. E., et al., Nature 409:341-346 (2001)) with some modifications. Briefly, 50 μl of purified GST fusion protein or peptides diluted in PBS was pipetted into polylysine precoated 96 well plates (Becton Dickson Biocoat plates) and dried overnight at room temperature. […]

E13 chick DRG neurons = experiment: cDRG neurite outgrowth assay; format: cell-based; details: substrate coated with GST fusion protein
Experimental: FIG. 2D. Differential effects of Amino-Nogo fragments on neurite outgrowth. Dissociated neurons from E13 chick DRGs were plated on 96 well dishes coated with lpmol protein per well and stained for neurofilament localization.
FIG. 2E. Neurite length per neuron were measured and plotted as percentage of PBS control with increasing concentration of dried protein for experiment described in […].
FIG. 6C. B24/32 peptide inhibits neurite outgrowth. Dissociated neurons from E13 chick DRG were plated onto 96 well dishes coated with 500 pmol of dried peptides as indicated and stained for neurofilament localization.
FIG. 6D. Neurite length per neuron was measured and plotted as percentage of PBS control for experiments as in (C).
(§1) It has been recognized that the Amino-Nogo-A protein inhibits non-neuronal cell spreading and axonal outgrowth when the protein is substrate bound (Chen, M. S., et al., Nature 403:434-439 (2000); Fournier, A. E., et al., Nature 409:341-346 (2001)). […] The later domain has been termed Δ20. To determine whether the NgR-interacting aa of Amino-Nogo-A described in Example 1 regulate cell spreading and axonal outgrowth, various fragments were expressed as GST fusion proteins and purified from E. coli. To generate GST fusion proteins, amino Nogo fragments were cloned in pGEX2T (Amersham Pharmacia). Native and soluble GST fusion proteins were expressed and purified as described (GrandPre, T., et al., Nature 403:439-444 (2000)). COS-7 binding assays were done as described (Fournier, A. E., et al., Nature 409:341-346 (2001)). Bound AP to COS-7 cells was measured using NIH image software. Fibroblast spreading and cDRG outgrowth assay were done as described (Fournier, A. E., et al., Nature 409:341-346 (2001)) with some modifications. Briefly, 50 μl of purified GST fusion protein or peptides diluted in PBS was pipetted into polylysine precoated 96 well plates (Becton Dickson Biocoat plates) and dried overnight at room temperature. For fibroblast spreading assay, subconfluent COS-7 cells were then plated for 1 hour in serum containing medium before fixation and staining with rho damine-phalloidin.
The same GST-Amino-Nogo proteins were tested for their ability to reduce neurite outgrowth from chick E13 DRG neurons. For cDRG outgrowth assay, dissociated E13 cDRG neurons were plated for 6 hours before fixation. […] Cell area, number of attached cells and neurite length were measured using the Imageexpress machine and software (Axon Instrument).
We reasoned that fusing the 24 aa segment of Amino-Nogo-A to NEP32 antagonist peptide might create a high affinity antagonist with a potency similar to the binding of AP-B4C-66 to NgR. […] Cell area, number of attached cells and neurite length were measured using the linageexpress machine and software (Axon Instrument).

NgR mutants = experiment: AP fusion protein binding to COS-7 cells expressing NgR deletion mutants; details: COS-7 cells expressing NgR mutants; FIG. 3A
Text: FIG. 3A. Binding of Amino-Nogo to NgR requires LRR repeats. Binding of AP or AP fused Nogo fragments to COS-7 cells expressing NgR mutants as indicated. AP-B and AP-B4: AP fusion protein of B or B4 fragment of Amino-Nogo. Surface expression of NgR mutants was detected using anti-Myc antibodies.
Similarly, the cysteine rich LRR-NT and LRR-CT capping domains are essential for Amino-Nogo-B4C binding. […] NgR is part of gene family that includes NgR2 and NgR3. […] By these measures, the NgR requirements for Nogo-66 and Amino-Nogo-B4C binding are indistinguishable.

NgR = target: T1, NgR (Homo sapiens, UniProt Q9BZR6); experiment: AP fusion protein binding to NgR expressing COS-7 cells; details: AP fused Amino-Nogo fragments in conditioned media on NgR expressing COS-7 cells; 'No binding at' cells continue on the next line: AmNg A 150 nM; a.a. 1000-1018, a.a. 1005-1018, Amino of NgC 25 nM; a.a. 950-1004 50 nM; Amino of NgB 100 nM
T1 construct: expressed in transfected cells; host or cells: COS-7
T1 sequence (Q9BZR6 27-447): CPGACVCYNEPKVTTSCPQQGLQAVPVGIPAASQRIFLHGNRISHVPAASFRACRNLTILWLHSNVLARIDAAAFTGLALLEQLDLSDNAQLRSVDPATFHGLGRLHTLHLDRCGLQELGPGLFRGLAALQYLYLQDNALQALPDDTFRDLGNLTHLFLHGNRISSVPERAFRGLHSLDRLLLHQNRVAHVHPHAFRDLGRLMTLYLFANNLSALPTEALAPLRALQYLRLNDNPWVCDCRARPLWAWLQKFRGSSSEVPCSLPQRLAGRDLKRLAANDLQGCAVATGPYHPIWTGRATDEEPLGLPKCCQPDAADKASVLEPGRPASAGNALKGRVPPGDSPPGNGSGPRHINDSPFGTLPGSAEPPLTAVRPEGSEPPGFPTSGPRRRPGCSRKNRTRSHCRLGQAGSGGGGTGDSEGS
Text: Several alkaline phosphatase (AP) fusion proteins containing various Nogo-A segments derived from regions between the amino terminus and the first hydrophobic segment were examined to identify the mechanism of Amino-Nogo-A action. To generate additional AP fusion proteins, human amino Nogo fragments were amplified and ligated to the pcAP6 vector digested with restriction enzymes EcoRI and XhoI as described (Fournier, A. E., et al., Nature 409:341-346 (2001)). Plasmids were then transfected into HEK293T cells and conditioned media were collected after 7 days. None of these fragments bind with high affinity to non-transfected COS-7 cells. […] This binding is saturable with a Kd indistinguishable from that for AP-Nogo-66 association with NgR (Table I). To better define the region responsible for Amino-Nogo interaction with NgR, a range of truncation mutants of Amino-Nogo were examined as AP fusion proteins. […] In fact, the NgR-interacting segment of Amino-Nogo is fully accounted for in the extreme carboxyl 24 amino acids (aa 995-1018, Amino-Nogo-A-24) (Table I and FIG. 1D). […] We named this domain (aa 995-1013) as Amino-Nogo-A-19.
Binding Kds for AP fused Amino-Nogo fragments were measured by applying conditioned media containing AP fusion protein to NgR expressing COS-7 cells. Bound AP was stained and measured.
as §1

B1: B4C: fusion protein of GST and B4C fragment (carboxyl terminal 75 aa) of Amino-Nogo (protein)
chain: LLPPDVSALATQAEIESIVKPKVLVKEAEKKLPSDTEKEDRSPSAIFSAELSKTSVVDLLYWRDIKKTG
modifications: left off: large carriers
notes: fusion protein of GST and B4C fragment (carboxyl terminal 75 aa) of Amino-Nogo
COS-7 cell attachment and spreading (COS-7 cells): do not alter COS-7 morphology
neurite outgrowth from chick E13 DRG neurons (E13 chick DRG neurons): not inhibitory for axonal growth

B2: a.a. 950-1018 (AmNg B4C): AP fusion protein of Amino-Nogo fragment B4C, aa 950-1018 (protein)
chain: LLPPDVSALATQAEIESIVKPKVLVKEAEKKLPSDTEKEDRSPSAIFSAELSKTSVVDLLYWRDIKKTG
modifications: left off: large carriers
binding to NgR with deletion of the CT domain (NgR mutants): did not alter
binding to NgR with deletions of any two LRRs (NgR mutants): eliminated binding
requirement of LRR-NT and LRR-CT capping domains of NgR for binding (NgR mutants): essential
Kd (NgR): 3.51 ± 3.36 nM
